# Changes are numbered by the printed parent chain.
# T1: human GIP receptor (human) (UniProt P48546)
# T1 sequence (looked up): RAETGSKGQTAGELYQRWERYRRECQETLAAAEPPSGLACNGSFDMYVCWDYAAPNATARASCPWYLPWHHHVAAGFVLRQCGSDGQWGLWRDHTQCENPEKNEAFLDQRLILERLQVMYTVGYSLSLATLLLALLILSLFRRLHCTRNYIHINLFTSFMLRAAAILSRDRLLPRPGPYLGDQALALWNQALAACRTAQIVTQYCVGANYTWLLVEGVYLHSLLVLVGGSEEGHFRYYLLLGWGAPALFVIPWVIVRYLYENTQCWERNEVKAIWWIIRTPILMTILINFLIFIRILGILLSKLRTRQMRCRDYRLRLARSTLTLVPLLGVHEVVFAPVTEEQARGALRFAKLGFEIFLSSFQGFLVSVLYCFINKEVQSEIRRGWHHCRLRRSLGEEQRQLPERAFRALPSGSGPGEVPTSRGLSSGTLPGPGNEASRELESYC
# B1: Example 682 (peptide)
# chain: YXQGTXTSDXSIXLDXKAQXXFIEXLIEGGPSSGEPPPSGE
# modifications: synthetic construct; SITE 2: note = 2-Aminoisobutyric Acid; SITE 6: note = alpha-methyl-2-fluoro-L-phenylalanine; SITE 10: note = 3-(4-Pyridyl)-L-alanine; SITE 13: note = alpha-methyl-leucine; SITE 16: note = L-ornithine; SITE 17: note = Lysine is chemically modified through conjugation of the epsil
# B2: Example 698 (peptide)
# chain: B1 chain with S11X, S39E
# modifications: synthetic construct; SITE 2: note = 2-Aminoisobutyric Acid; SITE 6: note = alpha-methyl-2-fluoro-L-phenylalanine; SITE 10: note = 3-(4-Pyridyl)-L-alanine; SITE 11: note = alpha-methyl-L-serine; SITE 13: note = alpha-methyl-leucine; SITE 16: note = L-ornithine; SITE 17: note = Lysine is chemically mo
# B3: Example 702 (peptide)
# chain: YXQGTXTSDXXIXLDXKAAXEFIEXLIEGGPSSGAPPPSGSE
# modifications: synthetic construct; SITE 2: note = 2-Aminoisobutyric Acid; SITE 6: note = alpha-methyl-2-fluoro-L-phenylalanine; SITE 10: note = 3-(4-Pyridyl)-L-alanine; SITE 11: note = alpha-methyl-L-serine; SITE 13: note = alpha-methyl-leucine; SITE 16: note = L-ornithine; SITE 17: note = Lysine is chemically mo
# B4: Example 720 (peptide)
# chain: B3 chain with A35E
# modifications: synthetic construct; SITE 2: note = 2-Aminoisobutyric Acid; SITE 6: note = alpha-methyl-2-fluoro-L-phenylalanine; SITE 10: note = 3-(4-Pyridyl)-L-alanine; SITE 11: note = alpha-methyl-L-serine; SITE 13: note = alpha-methyl-leucine; SITE 16: note = L-ornithine; SITE 17: note = Lysine is chemically mo
# B5: Example 703 (peptide)
# chain: B3 chain with S41E
# modifications: synthetic construct; SITE 2: note = 2-Aminoisobutyric Acid; SITE 6: note = alpha-methyl-2-fluoro-L-phenylalanine; SITE 10: note = 3-(4-Pyridyl)-L-alanine; SITE 11: note = alpha-methyl-L-serine; SITE 13: note = alpha-methyl-leucine; SITE 16: note = L-ornithine; SITE 17: note = Lysine is chemically mo
# B6: Example 719 (peptide)
# chain: B3 chain with A35E, S41T
# modifications: synthetic construct; SITE 2: note = 2-Aminoisobutyric Acid; SITE 6: note = alpha-methyl-2-fluoro-L-phenylalanine; SITE 10: note = 3-(4-Pyridyl)-L-alanine; SITE 11: note = alpha-methyl-L-serine; SITE 13: note = alpha-methyl-leucine; SITE 16: note = L-ornithine; SITE 17: note = Lysine is chemically mo
# B7: Example 697 (peptide)
# chain: YXQGTXTSDXXIXLDXKAQXXFIEXLIEGGPSSGEPPPEGTGE
# modifications: synthetic construct; SITE 2: note = 2-Aminoisobutyric Acid; SITE 6: note = alpha-methyl-2-fluoro-L-phenylalanine; SITE 10: note = 3-(4-Pyridyl)-L-alanine; SITE 11: note = alpha-methyl-L-serine; SITE 13: note = alpha-methyl-leucine; SITE 16: note = L-ornithine; SITE 17: note = Lysine is chemically mo
# B8: Example 746 (peptide)
# chain: B7 chain with Q19A, X21E, E39S, T41G
# modifications: synthetic construct; SITE 2: note = 2-Aminoisobutyric Acid; SITE 6: note = alpha-methyl-2-fluoro-L-phenylalanine; SITE 10: note = 3-(4-Pyridyl)-L-alanine; SITE 11: note = alpha-methyl-L-serine; SITE 13: note = alpha-methyl-leucine; SITE 16: note = L-ornithine; SITE 17: note = Lysine is chemically mo
# B9: Example 745 (peptide)
# chain: B7 chain with Q19A, X21E, E35A, E39S, T41G
# modifications: synthetic construct; SITE 2: note = 2-Aminoisobutyric Acid; SITE 6: note = alpha-methyl-2-fluoro-L-phenylalanine; SITE 10: note = 3-(4-Pyridyl)-L-alanine; SITE 11: note = alpha-methyl-L-serine; SITE 13: note = alpha-methyl-leucine; SITE 16: note = L-ornithine; SITE 17: note = Lysine is chemically mo
# B10: Example 725 (peptide)
# chain: B7 chain with Q19A, X21E, E35A, E39S, G42E
# modifications: synthetic construct; SITE 2: note = 2-Aminoisobutyric Acid; SITE 6: note = alpha-methyl-2-fluoro-L-phenylalanine; SITE 10: note = 3-(4-Pyridyl)-L-alanine; SITE 11: note = alpha-methyl-L-serine; SITE 13: note = alpha-methyl-leucine; SITE 16: note = L-ornithine; SITE 17: note = Lysine is chemically mo
# B11: Example 724 (peptide)
# chain: B7 chain with Q19A, X21E, E35A, E39S, E43X
# modifications: synthetic construct; SITE 2: note = 2-Aminoisobutyric Acid; SITE 6: note = alpha-methyl-2-fluoro-L-phenylalanine; SITE 10: note = 3-(4-Pyridyl)-L-alanine; SITE 11: note = alpha-methyl-L-serine; SITE 13: note = alpha-methyl-leucine; SITE 16: note = L-ornithine; SITE 17: note = Lysine is chemically mo
# Target: human glucagon receptor (human) (UniProt P47871)
# Sequence (P47871 26-477): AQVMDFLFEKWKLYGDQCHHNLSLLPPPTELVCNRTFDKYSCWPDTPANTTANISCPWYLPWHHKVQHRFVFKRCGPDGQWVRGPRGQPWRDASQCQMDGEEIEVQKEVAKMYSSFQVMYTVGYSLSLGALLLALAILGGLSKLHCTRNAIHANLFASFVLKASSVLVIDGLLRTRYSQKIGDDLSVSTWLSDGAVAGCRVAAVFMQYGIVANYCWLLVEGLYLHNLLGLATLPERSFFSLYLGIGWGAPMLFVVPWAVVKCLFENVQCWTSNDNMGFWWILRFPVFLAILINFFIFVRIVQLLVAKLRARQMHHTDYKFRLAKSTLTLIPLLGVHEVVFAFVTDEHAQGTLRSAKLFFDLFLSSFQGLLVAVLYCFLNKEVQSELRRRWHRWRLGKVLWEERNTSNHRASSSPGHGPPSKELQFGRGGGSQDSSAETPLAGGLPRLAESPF
# Test: cell-based or functional assay
Binder,cAMP Rel EC50 (1% HSA) [nM],Relative cAMP EC50 [nM]
B1,127,–
B2,124,1.53
B3,196,1.5
B4,239,1.78
B5,201,1.56
B6,181,1.44
B7,130,1.71
B8,255,1.62
B9,266,1.86
B10,244,1.49
B11,209,1.74

# Target: T1, human GIP receptor (human)
# Test: cell-based or functional assay
Binder,cAMP Rel EC50 (1% HSA) [nM],Relative cAMP EC50 [nM]
B1,0.415,–
B2,0.824,0.0112
B3,1.25,0.0116
B4,1.02,0.0103
B5,0.961,0.0101
B6,0.882,0.00998
B7,0.607,0.0109
B8,1.44,0.0119
B9,1.36,0.012
B10,1.39,0.0126
B11,1.06,0.0102

# Target: hGLP-1R (Homo sapiens, UniProt P43220)
# Sequence (P43220 24-463): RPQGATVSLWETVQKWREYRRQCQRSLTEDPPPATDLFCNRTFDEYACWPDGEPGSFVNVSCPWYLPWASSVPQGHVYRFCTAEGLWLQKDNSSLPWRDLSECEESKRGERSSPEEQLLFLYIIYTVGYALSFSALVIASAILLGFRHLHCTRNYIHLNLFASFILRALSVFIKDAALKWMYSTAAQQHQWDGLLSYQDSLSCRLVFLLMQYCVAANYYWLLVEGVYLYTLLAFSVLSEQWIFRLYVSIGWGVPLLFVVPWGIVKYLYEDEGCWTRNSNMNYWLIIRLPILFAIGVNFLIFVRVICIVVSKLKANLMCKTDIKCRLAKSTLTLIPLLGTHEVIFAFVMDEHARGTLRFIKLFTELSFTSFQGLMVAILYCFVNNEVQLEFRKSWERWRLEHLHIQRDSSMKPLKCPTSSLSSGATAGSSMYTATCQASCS
# Test: cell-based or functional assay
Binder,cAMP Rel EC50 (1% HSA) [nM],Relative cAMP EC50 [nM]
B1,14,–
B2,20.6,0.252
B3,28.4,0.243
B4,28.3,0.245
B5,27.1,0.233
B6,23.2,0.22
B7,18.2,0.235
B8,38.6,0.261
B9,29,0.212
B10,29.1,0.258
B11,26.4,0.256

# — patent publication US20240270821A1, “GIP/GLP1/GCG TRI-RECEPTOR AGONISTS AND USES THEREOF” (priority 2023, published 2024)
